One block for each binder: values may come before it.
Tests used:
[1] = target: T1, mOrai1-hOrai1 ECL2 (AESVIV) protein (human/mouse chimera, UniProt Q8BWG9 1-304 (mouse entry)); experiment: FACS, 293EBNA transfectants [D00030 FIG. 16D]
T1 construct: also called Ch
Text: (§1) FIG. 16A-D illustrates the results of FACS analysis showing binding to the indicated mOrai1-hOrai1 ECL2 chimeric mutants expressed on the surface of HEK-293-EBNA cells. Transfected cells were stained first with recombinant monoclonal antibodies then counter-stained with a secondary phycoerythrin-labeled goat (“Gt”) anti-human (“Hu”) IgG F(ab′)₂ antibody fragment and visualized using FACS. In FIG. 16B and FIG. 16D, The values of Relative Fluorescence Intensity as Percent of Control (RFI-POC) are calculated from the relative fluorescence intensity geometric mean (Geo Mean). The geometric mean is an average calculated by multiplying a series of numbers and taking the nth root where n is the number of numbers in the series. It is a statistical average of a set of transformed numbers often used to represent a central tendency in a highly variable data set that minimizes the effects of extreme values.
(§2) Table 11A and Table 11B feature a schematic representation of the POC data from FIG. 16B and FIG. 16D, respectively, where the binding results are recorded as (+++) denoting binding POC from 40% to 100%, (++) for POC of 5% to less than 40%, (+) for POC from 1% to less than 5% and (−) as lack of binding with POC less than 1%.

[2] = target: T2, mOrai1-hOrai1 ECL2 (…) protein (human/mouse chimera, UniProt Q8BWG9 1-304 (mouse entry)); experiment: FACS, 293EBNA transfectants [D00030 FIG. 16D]
T2 construct: also called Ch
Text: as §1, §2

[3] = target: T1, mOrai1-hOrai1 ECL2 (AESVIV) protein; experiment: FACS, 293EBNA transfectants [D00028 FIG. 16B]
Text: as §1, §2

[4] = target: T2, mOrai1-hOrai1 ECL2 (…) protein; experiment: FACS, 293EBNA transfectants [D00028 FIG. 16B]
Text: as §1, §2

cynomolgus Orai1 = cynomolgus Orai1 (cynomolgus monkey, UniProt Q96D31 1-301 (human entry)); experiment: cell-based or functional assay
[5] = target: T3, hOrai1-mOrai1 ECL2 (RPTSKPPA) protein (human/mouse chimera, UniProt Q96D31 1-301); experiment: FACS, 293EBNA transfectants [D00032 FIG. 17B]
T3 construct: also called Ch
Description: (§3) FACS binding analysis. Transfected 293EBNA cells transiently expressed hOrai1-mOrai1 ECL2 or mOrai1-hOrai1 ECL2 chimera. The transfected cells were harvested at 48 hours post-transfection. Cells transfected with pcDNA3.1 were used as negative controls. Cells were washed once with ice-cold 1×PBS, resuspended in ice-cold FACS buffer (1×D-PBS+2% goat serum), and 2×10⁵ cells in 100 μL were stained per antibody combination. All antibody incubation steps were performed on ice for 1 hour. […] Next, the unlabelled antibody was detected using goat F(ab′)₂ anti-mouse or anti-human IgG-phycoerythrin (IgG-PE), followed by a wash with 200 μL of ice-cold FACS buffer before flow cytometry analysis. Unstained cells and cells stained with detecting antibodies were used as negative controls. The values of relative level of fluorescence were calculated using FCS Express (De Novo Software) and mean values were calculated using log-transformed data (geometric mean). […]
(§4) Representative results of FACS analysis of binding to the mutant hOrai1-mOrai1 ECL2 chimera described above by exemplary anti-hOrai1 antibodies of the present invention are shown in FIG. 17A-D, Table 10A and Table 10B below. Table 10A (Campaign 1) and Table 10B (Campaign 2) show the gain in binding ability of exemplary monoclonal antibodies to hOrai 1-mOrai 1 ECL2 chimera mutants as determined by FACS.

[6] = target: T4, hOrai1-mOrai1 ECL2 (…) protein (human/mouse chimera, UniProt Q96D31 1-301); experiment: FACS, 293EBNA transfectants [D00032 FIG. 17B]
T4 construct: also called Ch
Description: as §3, §4

[7] = target: T5, mOrai1-hOrai1 ECL2 (VIV) protein (human/mouse chimera, UniProt Q8BWG9 1-304 (mouse entry)); experiment: FACS, 293EBNA transfectants [D00028 FIG. 16B]
T5 construct: also called Ch
Text: as §1, §2

[8] = target: T6, mOrai1-hOrai1 ECL2 (HSD) protein (human/mouse chimera, UniProt Q8BWG9 1-304 (mouse entry)); experiment: FACS, 293EBNA transfectants [D00028 FIG. 16B]
T6 construct: also called Ch
Text: as §1, §2

[9] = target: T7, mOrai1-hOrai1 ECL2 chimeric protein (human/mouse chimera, UniProt Q8BWG9 1-304 (mouse entry)); experiment: FACS, 293EBNA transfectants [D00028 FIG. 16B]
T7 construct: mouse Orai1 with human ECL2; also called Ch
Text: as §1, §2

[10] = target: T1, mOrai1-hOrai1 ECL2 (AESVIV) protein; experiment: FACS, 293EBNA, RFI-POC grade; parameters: concentration or dose not given beside the values
Summary of the method: (§5)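 HEK-293-EBNA cells expressing mOrai1-hOrai1 ECL2 chimeric mutants stained with recombinant monoclonal antibodies, then PE-labelled goat anti-human IgG F(ab′)2, and analysed by FACS. RFI-POC derived from geometric mean fluorescence; graded +++ (40–100%), ++ (5–<40%), + (1–<5%), − (<1%).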

[11] = target: T2, mOrai1-hOrai1 ECL2 (…) protein; experiment: FACS, 293EBNA, RFI-POC grade; parameters: concentration or dose not given beside the values
Summary of the method: as §5

T2 sequence (Q8BWG9 other isoform, or with tags, fused parts or gaps): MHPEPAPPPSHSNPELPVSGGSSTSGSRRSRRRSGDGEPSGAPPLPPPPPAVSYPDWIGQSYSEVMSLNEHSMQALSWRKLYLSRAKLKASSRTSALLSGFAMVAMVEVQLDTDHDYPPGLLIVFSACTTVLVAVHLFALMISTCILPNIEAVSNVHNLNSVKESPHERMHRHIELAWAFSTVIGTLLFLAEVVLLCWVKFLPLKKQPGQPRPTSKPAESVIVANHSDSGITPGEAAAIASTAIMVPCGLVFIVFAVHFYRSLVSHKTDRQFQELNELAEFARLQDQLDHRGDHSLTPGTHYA
Chain of cynomolgus Orai1 (Q96D31 other isoform, or with tags, fused parts or gaps): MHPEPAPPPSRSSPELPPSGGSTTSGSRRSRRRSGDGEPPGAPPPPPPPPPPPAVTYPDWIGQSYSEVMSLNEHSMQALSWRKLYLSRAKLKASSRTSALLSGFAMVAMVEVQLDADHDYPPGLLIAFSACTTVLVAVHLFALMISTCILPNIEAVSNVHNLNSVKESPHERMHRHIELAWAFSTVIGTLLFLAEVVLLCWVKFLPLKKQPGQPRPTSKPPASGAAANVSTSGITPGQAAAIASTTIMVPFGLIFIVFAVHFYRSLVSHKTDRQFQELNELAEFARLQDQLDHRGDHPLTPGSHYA
T1 sequence (Q8BWG9 other isoform, or with tags, fused parts or gaps): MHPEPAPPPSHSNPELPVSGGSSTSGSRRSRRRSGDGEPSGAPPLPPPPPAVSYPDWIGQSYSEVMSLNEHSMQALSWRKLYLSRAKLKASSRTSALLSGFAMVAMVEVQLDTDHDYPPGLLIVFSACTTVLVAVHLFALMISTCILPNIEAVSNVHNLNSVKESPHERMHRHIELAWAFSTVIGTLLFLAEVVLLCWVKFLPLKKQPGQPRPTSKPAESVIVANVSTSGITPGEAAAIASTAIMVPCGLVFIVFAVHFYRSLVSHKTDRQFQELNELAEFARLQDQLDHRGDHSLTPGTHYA
T4 sequence (Q96D31 other isoform, or with tags, fused parts or gaps): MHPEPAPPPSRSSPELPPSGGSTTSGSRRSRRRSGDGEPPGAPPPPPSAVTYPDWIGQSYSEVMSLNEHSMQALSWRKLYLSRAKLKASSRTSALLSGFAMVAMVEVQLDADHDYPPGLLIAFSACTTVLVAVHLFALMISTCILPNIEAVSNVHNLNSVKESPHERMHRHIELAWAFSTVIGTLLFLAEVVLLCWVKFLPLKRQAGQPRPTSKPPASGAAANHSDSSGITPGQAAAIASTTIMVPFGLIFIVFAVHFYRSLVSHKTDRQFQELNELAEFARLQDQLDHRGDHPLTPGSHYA
T3 sequence (Q96D31 other isoform, or with tags, fused parts or gaps): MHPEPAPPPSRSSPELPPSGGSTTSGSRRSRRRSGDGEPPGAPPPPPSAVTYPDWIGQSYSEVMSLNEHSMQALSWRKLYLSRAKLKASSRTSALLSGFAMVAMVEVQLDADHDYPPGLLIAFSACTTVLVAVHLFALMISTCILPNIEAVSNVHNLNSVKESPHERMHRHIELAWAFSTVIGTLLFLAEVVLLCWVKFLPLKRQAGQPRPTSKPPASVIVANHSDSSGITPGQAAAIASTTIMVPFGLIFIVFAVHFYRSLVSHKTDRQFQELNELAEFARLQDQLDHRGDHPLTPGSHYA
T6 sequence (Q8BWG9 other isoform, or with tags, fused parts or gaps): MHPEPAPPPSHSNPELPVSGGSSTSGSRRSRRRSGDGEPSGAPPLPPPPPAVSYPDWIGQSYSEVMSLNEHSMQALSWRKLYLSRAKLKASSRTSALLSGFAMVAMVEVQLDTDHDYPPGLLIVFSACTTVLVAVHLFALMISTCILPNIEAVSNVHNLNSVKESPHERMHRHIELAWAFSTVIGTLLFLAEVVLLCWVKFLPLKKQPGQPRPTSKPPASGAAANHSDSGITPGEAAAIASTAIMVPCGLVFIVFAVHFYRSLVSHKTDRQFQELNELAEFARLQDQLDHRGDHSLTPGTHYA
T5 sequence (Q8BWG9 other isoform, or with tags, fused parts or gaps): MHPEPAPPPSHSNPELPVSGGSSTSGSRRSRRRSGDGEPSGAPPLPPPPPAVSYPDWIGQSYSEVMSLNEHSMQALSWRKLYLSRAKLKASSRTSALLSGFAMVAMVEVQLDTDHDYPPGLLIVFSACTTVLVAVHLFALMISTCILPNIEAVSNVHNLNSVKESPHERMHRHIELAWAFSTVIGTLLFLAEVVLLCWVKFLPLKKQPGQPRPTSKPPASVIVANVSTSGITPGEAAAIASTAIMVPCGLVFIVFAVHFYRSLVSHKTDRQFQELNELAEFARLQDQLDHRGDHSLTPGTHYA
T7 sequence (Q8BWG9 other isoform, or with tags, fused parts or gaps mutant): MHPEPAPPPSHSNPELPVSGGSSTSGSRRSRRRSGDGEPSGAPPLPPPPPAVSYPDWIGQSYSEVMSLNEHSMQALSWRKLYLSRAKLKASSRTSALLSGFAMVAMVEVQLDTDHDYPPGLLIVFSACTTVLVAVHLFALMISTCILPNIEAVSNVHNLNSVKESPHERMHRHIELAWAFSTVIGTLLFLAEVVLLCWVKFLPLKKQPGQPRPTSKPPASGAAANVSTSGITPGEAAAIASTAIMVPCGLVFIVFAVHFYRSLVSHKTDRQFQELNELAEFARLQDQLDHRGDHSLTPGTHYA

B1: mAb 2D2.1 (antibody, human IgG2, lambda, V domains shown)
VH: QVQLQQWGAGLLKPSETLSLTCAVYGGSFSGYYWSWIRQPPGKGLEWIGEIDHSGRINYNPALKSRLTISVDTSKNQFSLKLSSVTAADTAVYYCARAGSGGYEDWFDPWGQGTLVTVSS
VL: QSVLTQPPSVSGAPGQRVTISCTGSSSNIGAGYNVHWYQQFPRTDPKLLIYVYNIRPSGVPDRFSGSRSGTSASLAITGLQTEDEADYYCQSYDSSLSGVVFGGGTKLTVLG
notes: fully human IgG2 lambda, Campaign 1; also called mAb 2D.1
binding result [1]: binds | binding result [2]: binds

B2: mAb 2B7.1 (antibody, human IgG2, V domains shown)
VH: QVQLQQWGAGLLKPSETLSLTCAVYGGSFSGYYWSWIRQPPGKGLEWIGEIDHSGSTNYNPALKSRLTISVDTSKNQFSLKLSSVTAADTAVYYCARAGSGGYEDWFDPWGQGTLVTVSS
VL: QSVLTQPPSVSGAPGQRVTISCTGSSSNIGTGYNVHWYQQFPRTDPKLLIYVYNIRPSGVPDRFSGSRSGTSASLAITGLQTEDEADYYCQSYDSSLSGVVFGGGTKLTVLG
notes: fully human, Campaign 1
binding result [3]: binds | binding result [4]: binds

B5: mAb 5B1.1 (antibody, human IgG2, lambda, V domains shown)
VH: QVQLVQSGAEVKKPGASVKVSCKASGYTFTDYYINWVRQAPGQGLEWMGWINPNSGGSSYAQKFQGRVTMTRDTSISTAHMELIRLRSDDTAVYYCARERGGIEDWFDPWGQGTLVTVSS
VL: QSVLTQPPSVSGAPGQRVTISCTGSSSNIGAGYDVHWYQQLPGTAPKLLIYGNSNRPSGVPDRFSGSKSGTSASLAITKFQAEDEAVYYCQSYGSGLSGVVFGGGTKLTVLG
notes: fully human IgG2 lambda, Campaign 2; also called mAb 5Bl1.1
POC (percent of control, FACS Geo Mean relative to binding to Ch. 1) [10]: 1 to 5% | POC (percent of control, FACS Geo Mean relative to binding to Ch. 1) [11]: 1 to 5%

The next lines start with the values.

binding result [3]: binds | binding result [4]: binds | IC50 IL-4 release, cynomolgus whole blood, Cyno # 1 (cynomolgus Orai1): 0.921 nM | IC50 IL-4 release, cynomolgus whole blood, Cyno # 2 (cynomolgus Orai1): 6.34 nM | IC50 IL-4 release, cynomolgus whole blood, Cyno # 3 (cynomolgus Orai1): 0.429 nM | IC50 IL-5 release, cynomolgus whole blood, Cyno # 1 (cynomolgus Orai1): 1.56 nM | IC50 IL-5 release, cynomolgus whole blood, Cyno # 2 (cynomolgus Orai1): 15.2 nM | IC50 IL-5 release, cynomolgus whole blood, Cyno # 3 (cynomolgus Orai1): 0.815 nM | IC50 IL-17 release, cynomolgus whole blood, Cyno # 1 (cynomolgus Orai1): 0.939 nM | IC50 IL-17 release, cynomolgus whole blood, Cyno # 2 (cynomolgus Orai1): 0.95 nM | IC50 IL-17 release, cynomolgus whole blood, Cyno # 3 (cynomolgus Orai1): 0.32 nM
B3: mAb 2C1.1 (antibody, human IgG2, lambda, V domains shown)
VH: QVQLQQWGAGLLKPSETLSLTCAVYGGSFSGYYWSWIRQPPGKGLEWIGEIDHSGSTNYNPALKSRLTISVDTSKNQFSLKLSSVTAADTAVYYCARAGSGGYEDWFDPWGQGTLVTVSS
VL: QSVLTQPPSVSGAPGQRVTISCTGSSSNIGAGYNVHWYQQFPRTDPKLLIYVYNIRPSGVPDRFSGSRSGTSASLAITGLQTEDEADYYCQSYDSSLSGVVFGGGTKLTVLG
notes: fully human IgG2 lambda, Campaign 1; tested hybridoma-purified and recombinant; also called anti-hOrai1 mAb 2C1.1

binding result [5]: binds | binding result [6]: binds | binding result [7]: binds | binding result [8]: binds | binding result [9]: binds
B4: mAb 2B4.1 (antibody, human IgG2, lambda, V domains shown)
VH: QVQLVQSGAEVKKPGASVKVSCKASGYTFTDYYMHWVRQAPGQGLEWMGWINPNSGGTNYVQKFQDRVTMTRDTSITTAYMELTRLRSDDTAVYYCAREEGDYGMDVWGQGTTVTVSS
VL: QSVLTQPPSVSGAPGQRVTISCTGSNSNIGTGYDVHWYQKLPGTAPRLLIYSHFNRPSGVPDRFSGSTSGTSASLAITGLQAEDEADYYCQSYDSSLSGSVFGGGTKLTVLG

— patent publication US20120231006A1 (Amgen, published 2012)
